In data set [1] the target is NSP12 (RNA-dependent RNA polymerase) (SARS-CoV-2) (UniProt P0DTD1).
The subject of data set [2] is NSP8 (primase) (SARS-CoV-2).
Data set [3] concerns N (nucleocapsid) (SARS-CoV-2). Particulars: eCLIP in infected Vero E6 cells.

In data set [1], “SARS-CoV-2 genome 7436-7526, positive strand” returned a binding signal of 13.7 fold.

For the substance “SARS-CoV-2 genome 5' end, positive strand”, the binding signal in data set [2] came to 107 fold; in data set [1], 573 fold.

For “SARS-CoV-2 genome 9602-9620, positive strand”, in data set [3], the binding signal is 9.5 fold.

The values above are taken from patent publication US20250263697.
